Numbering of substitutions follows the chain as printed. Numbers in names are those of the source. Each block holds one binder with its values, some of them ahead of it.
Columns and labels:
[1] = target: BK α subunit (mSlo1) pseudo-wild-type with N200C (S3-S4 loop) (mouse); test: cross-linking
[2] = target: BK α subunit (mSlo1) pseudo-wild-type with K296C (S6 flank) (mouse); test: cross-linking

extent of disulfide crosslinking [1]: 30%
B1: BK β4 subunit pseudo-wild-type with A43C (TM1 flank), 3X FLAG (natural protein)
chain: MAKLRVAYEYTEAEDKSIRLGLFLIISGVVSLFIFGFAWLSPCLQDLQATEANCTVLSVQQIGEVFECTFTCGADCRGTSQYPCVQVYVNNSESNSRALLHSDEHQLLTNPKCSYIPPCKRENQKNLESVMNWQQYWKDEIGSQPFTCYFNQHQRPDDVLLHRTHDEIVLLHAFLWPLVTFVVGVLIVVLTICAKSLAVKAEAMKKRKFS

extent of disulfide crosslinking [2]: < 30%
B2: BK β4 subunit pseudo-wild-type with V169C (TM2 flank), 3X FLAG (natural protein)
chain: B1 chain with C43A, V169C

From paper PMC2737688
